Assay results from patent US20250250357A1 (NANJING ZAIMING PHARMACEUTICAL, published 2025).

Experiments:
[1] = target: T1, human MSLN-R3-his protein (human, UniProt Q13421 487-598); assay: ELISA, coated antigen; antibody 1 nM
T1 construct: also called human MSLN-R3 protein; hMSLN-R3-his; not shown: His tag

[2] = target: T2, human MSLN-R3-3 polypeptide (human); assay: ELISA, coated antigen; antibody 1 nM
T2 construct: also called human MSLN-R3-3 protein; hMSLN-R3-3

[3] = target: T1, human MSLN-R3-his protein; assay: ELISA, coated antigen; antibody 10 nM
[4] = target: T2, human MSLN-R3-3 polypeptide; assay: ELISA, coated antigen; antibody 10 nM
[5] = target: T1, human MSLN-R3-his protein; assay: ELISA, coated antigen; antibody 0.1 nM
[6] = target: T1, human MSLN-R3-his protein; assay: ELISA, coated antigen; antibody 100 nM
[7] = target: T2, human MSLN-R3-3 polypeptide; assay: ELISA, coated antigen; antibody 0.1 nM
[8] = target: T2, human MSLN-R3-3 polypeptide; assay: ELISA, coated antigen; antibody 100 nM
[9] = target: T1, human MSLN-R3-his protein; assay: ELISA, coated antigen; antibody 0.01 nM
[10] = target: T2, human MSLN-R3-3 polypeptide; assay: ELISA, coated antigen; antibody 0.01 nM
[11] = target: T1, human MSLN-R3-his protein; assay: ELISA, coated antigen; antibody 0.001 nM
[12] = target: T2, human MSLN-R3-3 polypeptide; assay: ELISA, coated antigen; antibody 0.001 nM
[13] = target: T1, human MSLN-R3-his protein; assay: ELISA, coated antigen; antibody 0.0001 nM
[14] = target: T2, human MSLN-R3-3 polypeptide; assay: ELISA, coated antigen; antibody 0.0001 nM
[15] = target: T1, human MSLN-R3-his protein; assay: ELISA, coated antigen; no antibody (blank, column 'none')
[16] = target: T2, human MSLN-R3-3 polypeptide; assay: as above
[17] = target: T3, human MSLN protein endogenously expressed on OVCAR3 tumor cells (human, UniProt Q13421 296-598); assay: FACS on OVCAR3 cells
T3 construct: whole, on cells; Endogenous target on OVCAR3 cells; kept apart from the recombinant full-length construct; also called mesothelin
T3 sequence (Q13421 other isoform, or with tags, fused parts or gaps): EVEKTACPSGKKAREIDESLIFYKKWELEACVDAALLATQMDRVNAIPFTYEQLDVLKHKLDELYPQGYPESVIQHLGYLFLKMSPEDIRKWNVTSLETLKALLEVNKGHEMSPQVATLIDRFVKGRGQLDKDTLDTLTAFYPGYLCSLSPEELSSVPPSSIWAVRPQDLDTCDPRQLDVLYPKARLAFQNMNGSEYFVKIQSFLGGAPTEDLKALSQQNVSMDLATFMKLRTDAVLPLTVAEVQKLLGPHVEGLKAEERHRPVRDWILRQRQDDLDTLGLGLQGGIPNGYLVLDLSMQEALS

[18] = target: T4, human MSLN full-length protein (NCBI: AAH09272.1) expressed on HEK293T-hMSLN-B8 cells (human, UniProt Q13421 296-598); assay: FACS on HEK293T-hMSLN-B8 cells
T4 construct: Whole encoded precursor
T4 sequence (Q13421 other isoform, or with tags, fused parts or gaps limits assumed): as the sequence (Q13421 other isoform, or with tags, fused parts or gaps) above, with R14P counted along it

[19] = target: T5, human MSLN-R3 protein (Met487-Ser606 of NCBI AAH09272.1) expressed on HEK293T-hMSLN-R3 cells (human, UniProt Q13421 487-606); assay: FACS on HEK293T-hMSLN-R3 cells
T5 construct: also called Region3
T5 sequence (Q13421 495-614): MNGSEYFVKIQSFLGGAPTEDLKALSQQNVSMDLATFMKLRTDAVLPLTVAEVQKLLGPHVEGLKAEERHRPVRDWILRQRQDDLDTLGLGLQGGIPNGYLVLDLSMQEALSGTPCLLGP

[20] = target: T6, monkey MSLN full-length protein (NCBI: XP_028696439.1) expressed on HEK293T-monkey MSLN cells (monkey); assay: FACS on HEK293T-monkey MSLN cells
T6 construct: Whole encoded precursor
T6 chain: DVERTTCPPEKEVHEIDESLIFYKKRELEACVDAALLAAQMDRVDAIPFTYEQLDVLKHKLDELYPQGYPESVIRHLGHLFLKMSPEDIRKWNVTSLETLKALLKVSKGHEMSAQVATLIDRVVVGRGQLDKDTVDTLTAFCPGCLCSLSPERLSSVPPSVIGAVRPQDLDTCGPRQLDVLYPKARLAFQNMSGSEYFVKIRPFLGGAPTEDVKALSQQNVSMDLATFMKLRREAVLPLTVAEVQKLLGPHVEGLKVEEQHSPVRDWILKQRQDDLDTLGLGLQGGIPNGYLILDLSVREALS

T1 sequence (Q13421 495-606): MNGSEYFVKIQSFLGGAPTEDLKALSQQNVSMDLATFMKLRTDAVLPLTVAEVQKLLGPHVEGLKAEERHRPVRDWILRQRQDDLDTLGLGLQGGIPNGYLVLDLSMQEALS

B1: S009-F3.23.1 (antibody, human IgG1, kappa, V domains shown)
VH: QVQLQQSGADLVRPGASVTLSCKASGYTFTDYEMHWVKQTPVHGLEWIGAIDPETGDTVYNQNFKGKAILTADKSSSTAYMELRSLTSEDSAVYYCTRYGYDWGWGQGTTLTVSS
VL: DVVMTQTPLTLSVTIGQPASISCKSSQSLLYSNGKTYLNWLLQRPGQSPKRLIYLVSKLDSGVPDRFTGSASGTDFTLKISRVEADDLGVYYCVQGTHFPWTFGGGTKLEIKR
notes: Human-murine chimeric antibody, human IgG1/kappa constant regions
B1 gave an OD450 [1] of 1.77 OD450, an OD450 [2] of 1.87 OD450 and an OD450 [3] of 1.95 OD450. The OD450 [4] was 2.01 OD450, the OD450 [5] was 1.51 OD450 and the OD450 [6] was 2.31 OD450. It also gave an OD450 [7] of 1.54 OD450, an OD450 [8] of 2.33 OD450 and an OD450 [9] of 0.48 OD450. It also gave an OD450 [10] of 0.57 OD450, an OD450 [11] of 0.12 OD450 and an OD450 [12] of 0.18 OD450. For the same binder, the OD450 [13] was 0.08 OD450, the OD450 [14] was 0.09 OD450 and the OD450 [15] was 0.1 OD450. For the same binder, the OD450 [16] was 0.09 OD450.

B2: S009-F3.45.21 (antibody, human IgG1, kappa, V domains shown)
VH: DVQLQESGPGLVKPSQSLSLTCSVTGDSITSGYYWNWIRQFPGNKLEWMGFIRFDGTNNYNPSLKNRISITRDTSKNQFFLKLNSVTTEDTATYYCAREGSYAPAWFAYWGQGTLVTVSA
VL: QIVLTQSPAIMSASPGEKVTMTCSASSSLSYMYWYQQKPGSSPRLLIYDTSNLASGVPVRFSGSGSGTSYSLTISRMEAEDAATYYCQQWSSYPPTFGGGTKLEIKR
notes: as for B1
B2 showed an OD450 [1] of 0.05 OD450, an OD450 [2] of 0.07 OD450 and an OD450 [3] of 0.07 OD450. It also gave an OD450 [4] of 0.08 OD450, an OD450 [5] of 0.06 OD450 and an OD450 [6] of 0.09 OD450. For the same binder, the OD450 [7] was 0.08 OD450, the OD450 [8] was 0.11 OD450 and the OD450 [9] was 0.07 OD450. The OD450 [10] was 0.07 OD450, the OD450 [11] was 0.24 OD450 and the OD450 [12] was 0.25 OD450. The OD450 [13] was 0.09 OD450, the OD450 [14] was 0.1 OD450 and the OD450 [15] was 0.09 OD450. For the same binder, the OD450 [16] was 0.07 OD450.

B3: S009-F3.51.8 (antibody, human IgG1, kappa, V domains shown)
VH: QVQLQQSGAELVRPGASVTLSCKASGYTFTDYEMHWVKQTPVHGLEWIGGFDPETGGTAHNQKFKGKAILTADKSSSTAYMELRSLTSEDSAVYYCSNYGSIWGDCWGQGTSVTVSS
VL: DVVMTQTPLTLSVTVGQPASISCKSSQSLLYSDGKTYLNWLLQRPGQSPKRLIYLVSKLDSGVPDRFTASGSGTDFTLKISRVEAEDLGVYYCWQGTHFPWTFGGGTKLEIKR
notes: as for B1
B3 was tested, and the OD450 [1] was 1.83 OD450, the OD450 [2] was 1.8 OD450 and the OD450 [3] was 1.91 OD450. It also gave an OD450 [4] of 1.92 OD450, an OD450 [5] of 1.55 OD450 and an OD450 [6] of 2.18 OD450. It also gave an OD450 [7] of 1.42 OD450, an OD450 [8] of 2.04 OD450 and an OD450 [9] of 0.41 OD450. The OD450 [10] was 0.51 OD450, the OD450 [11] was 0.12 OD450 and the OD450 [12] was 0.13 OD450. It also gave an OD450 [13] of 0.09 OD450, an OD450 [14] of 0.09 OD450 and an OD450 [15] of 0.09 OD450. It also gave an OD450 [16] of 0.07 OD450.

B4: S009-F4-94.15 (antibody, human IgG1, kappa, V domains shown)
VH: QVQLHQPGAELVRPGSSVKLSCKASGYTFTSYWVHWVQQRPRQGLEWIGNIDPSDSEIHYNQKFKDKATLTVDKSSSTAYIHLSRLTSEDSAIYYCVRGGVPWFAYWGQGTLVTVSA
VL: QIVLTQSPAIMSASPGEKVTLTCSASSSVSSTYLYWFQQKPGSSPKVWIYSTSNLASGVPARFSGSGSGTSYSLTISSMEAEDAASYFCHQWISYPYTFGGGTKLEIKR
notes: human-murine chimeric antibody, human IgG1/kappa constant regions
For B4, the EC50 [17] was 0.65 nM, the “Maximum mean fluorescence intensity” value [17] was 7060 and the EC50 [18] was 3.06 nM. For the same binder, the “Maximum mean fluorescence intensity” value [18] was 113000, the “Maximum mean fluorescence intensity” value [19] was 84 and the binding result [19] was “no binding”. The EC50 [20] was 0.37 nM and the “Maximum mean fluorescence intensity” value [20] was 29900.

B5: S009-F4-127.10 (antibody, human IgG1, kappa, V domains shown)
VH: EVQLQQSGPVLVKPGASVKMSCKASGYTFTDYYMNWVKQSHGKSPEWIGVINPYNDVISYNQKFKGKATLTVDKSSSTAYMELNSLTSEDSAVYYCANYGSSYYAMDYWGQGTSVTVSS
VL: DVVMTQTPLSLSVSLGDQASISCRSSQSLVHSNGNTYLQWSLQKPGQSPNLLIYKVSNRFSGVPDRFSGSGSGTDFTLKISRVEAEDLGVYFCSQTTHVPFTFGGGTKLEIRR
notes: as for B4
B5 was tested, and the “Maximum mean fluorescence intensity” value [17] was 3360, the EC50 [18] was 6.07 nM and the “Maximum mean fluorescence intensity” value [18] was 102000. The EC50 [19] was 1.97 nM, the “Maximum mean fluorescence intensity” value [19] was 14200 and the EC50 [20] was 3.42 nM. The “Maximum mean fluorescence intensity” value [20] was 41100.

B6: S009-F5-9.16 (antibody, human IgG1, kappa, V domains shown)
VH: EVQLRQSGPVLVKPGASVKMSCKASGYTFTDYFMNWVKPSHGKSLEWIGVINPSNGVINYNQRFKGKATLTVDKSSSTAYMELNSLTSEDSAVYYCARSYDFAWFAYWGQGTLVTVSA
VL: DVLMTQTPLSLPVSLGDQASISCRSSQNIVHSNGNTYLEWYLQKPGQSPKLLIYTVSNRFSGVPDRFSGSGSGTDFTLKISRVEAEDLGVYYCFQGSHVPYTFGGGTKLEIKR
notes: as for B4
With B6 the EC50 [17] was 0.82 nM, the “Maximum mean fluorescence intensity” value [17] was 3510 and the EC50 [18] was 0.76 nM. The “Maximum mean fluorescence intensity” value [18] was 240000, the EC50 [19] was 0.35 nM and the “Maximum mean fluorescence intensity” value [19] was 63900. The “Maximum mean fluorescence intensity” value [20] was 365 and the binding result [20] was “no binding”.

B7: S009-F6-62.5 (antibody, human IgG1, kappa, V domains shown)
VH: QVQLQQPGTELVKPGASVKLSCRASGYTFTAYWMHWVKQRPGQGLEWIGNINPSNGGTDFNEKFKSKATLTVDKSSSTAYMQLSSLTSEDSAVYYCARGRGYFDVWGTGTTVTVSS
VL: DILLTQSPAILSVSPGERVSFSCRASKNIGTSIHWYQQRTNGSPRLLIKYASESISGIPSRFSGSGSGTDFTLNINSVESEDIADYYCQQSNSWPTLTFGAGTKLELKR
notes: as for B4
B7 was tested, and the EC50 [17] was 0.31 nM, the “Maximum mean fluorescence intensity” value [17] was 2600 and the EC50 [18] was 0.41 nM. The “Maximum mean fluorescence intensity” value [18] was 202000, the “Maximum mean fluorescence intensity” value [19] was 186 and the binding result [19] was “no binding”. For the same binder, the “Maximum mean fluorescence intensity” value [20] was 202 and the binding result [20] was “no binding”.

B8: S009-F6-76.1 (antibody, human IgG1, kappa, V domains shown)
VH: QVQLQQSGPELVKPGASVKISCKASGYTFTDYYINWVKQRPGQGLEWIGWIFPGRGSTFYYEKFKGKATLTVDKSSSTAYMLLSSLTSEDSAVYFCARRGDSAGYEDLDYWGQGTSVTVSS
VL: NIVMTQSPKFMSMSVGERVTLSCKASENVVTYVSWYQQKPKQSPKLLIYGASKRYTGVPDRFTGSGSATDFTLTISSVQAEDLGDYHCGQSYSYPYTFGGGTKLEIKR
notes: as for B4
In the case of B8, the EC50 [17] is reported as 4.13 nM, the “Maximum mean fluorescence intensity” value [17] is reported as 6810 and the EC50 [18] is reported as 1.39 nM. For the same binder, the “Maximum mean fluorescence intensity” value [18] was 231000, the “Maximum mean fluorescence intensity” value [19] was 135 and the binding result [19] was “no binding”. For the same binder, the “Maximum mean fluorescence intensity” value [20] was 131 and the binding result [20] was “no binding”.
